{"source": "patent US20170059576", "about": "“METHOD OF DETERMINING A PROTEIN IN A SAMPLE” (RHEINISCHE FRIEDRICH-WILHELMS UNIVERSITAT BONN, published 2017)", "key": {"[1]": {"biological_target": "T1, c-Met ectodomain-Fc fusion (HGFR) (UniProt P08581 P08581:25-932)", "T1 sequence (P08581 25-932, one chain of several)": "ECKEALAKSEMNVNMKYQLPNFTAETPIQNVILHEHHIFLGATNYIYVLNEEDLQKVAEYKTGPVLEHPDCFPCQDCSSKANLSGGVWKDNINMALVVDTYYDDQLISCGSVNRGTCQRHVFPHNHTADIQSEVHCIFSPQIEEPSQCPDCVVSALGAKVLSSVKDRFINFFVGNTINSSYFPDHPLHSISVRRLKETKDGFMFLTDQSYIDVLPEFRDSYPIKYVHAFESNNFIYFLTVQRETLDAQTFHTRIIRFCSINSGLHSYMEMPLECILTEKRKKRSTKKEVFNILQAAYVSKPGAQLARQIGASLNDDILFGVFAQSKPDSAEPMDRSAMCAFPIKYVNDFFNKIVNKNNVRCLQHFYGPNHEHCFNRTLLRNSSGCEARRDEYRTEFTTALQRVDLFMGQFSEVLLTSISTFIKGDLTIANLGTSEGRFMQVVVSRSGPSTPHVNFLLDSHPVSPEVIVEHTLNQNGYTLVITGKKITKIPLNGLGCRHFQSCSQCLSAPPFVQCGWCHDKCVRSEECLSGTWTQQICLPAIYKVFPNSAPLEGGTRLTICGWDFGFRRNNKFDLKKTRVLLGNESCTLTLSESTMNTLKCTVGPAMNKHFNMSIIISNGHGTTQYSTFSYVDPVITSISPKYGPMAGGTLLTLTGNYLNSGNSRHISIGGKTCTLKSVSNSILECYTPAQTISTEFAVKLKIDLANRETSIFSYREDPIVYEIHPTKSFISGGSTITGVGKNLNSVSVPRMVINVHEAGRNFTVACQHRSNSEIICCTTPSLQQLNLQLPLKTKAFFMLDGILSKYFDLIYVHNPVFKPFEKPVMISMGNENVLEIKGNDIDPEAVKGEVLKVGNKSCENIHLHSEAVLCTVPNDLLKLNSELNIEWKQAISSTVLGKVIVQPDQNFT", "assay": "filter; competition vs 32P-trCLN3; PBS pH 7.4, 3 mM MgCl2, tRNA 1 mg/ml, BSA 1 mg/ml, 37 C", "conditions": "tags: human IgG1 Fc fusion; His (detected with anti-penta-His); R&D Systems; chain copies: 2; label: biotin; G4", "description": "(§1) To determine the affinity, ˜10 fmol of radiolabeled aptamer was incubated with protein dilution series for 30 min at 37° C. in 25 μL of buffer containing 1 mg/ml E. coli tRNA (Roche, Mannheim, Germany), 1 μg/ml BSA, 3 mM MgCl₂ in PBS, pH 7.4. For Sec7, 0.005% Triton X-100 was added and for c-Met-Fc, 1 mg/ml of BSA was used instead of 1 μg/ml. The aptamer-protein complexes were captured on a Protran™ nitrocellulose membrane (GE Healthcare) that was pre-incubated in 0.4 M KOH for 10 minutes, followed by washing with ddH₂O and PBS containing 3 mM MgCl₂, pH 7.4. After addition of the aptamer-protein solution, the filter was washed 4 times with PBS containing 3 mM MgCl₂, pH 7.4. Radioactivity was quantified using a Fujifilm Fla-3000 PhosphorImager and AIDA software package. The percentage of bound aptamer was calculated using equation 1: […]"}, "[2]": {"biological_target": "T1, c-Met ectodomain-Fc fusion (HGFR)", "assay": "filter; competition vs 32P-trCLN3; PBS pH 7.4, 3 mM MgCl2, tRNA, BSA, 37 C; nanomolar affinity stated", "conditions": "tags: human IgG1 Fc fusion; His (detected with anti-penta-His); R&D Systems; chain copies: 2; label: 5'-32P for radiolabeled tracer; G4 (two G-quadruplexes)"}, "[3]": {"biological_target": "T1, c-Met ectodomain-Fc fusion (HGFR)", "assay": "filter; no binding in tested range; in photo-crosslinking 24-fold lower signal than ABAL-trCLN3 at 500 nM c-Met (p87)", "conditions": "tags: human IgG1 Fc fusion; His (detected with anti-penta-His); R&D Systems; chain copies: 2; label: biotin", "description": "as §1"}, "Cytohesin-2 Sec7 domain [4]": {"biological_target": "T2, Cytohesin-2 Sec7 domain (UniProt Q99418 Q99418:72-201)", "T2 sequence": "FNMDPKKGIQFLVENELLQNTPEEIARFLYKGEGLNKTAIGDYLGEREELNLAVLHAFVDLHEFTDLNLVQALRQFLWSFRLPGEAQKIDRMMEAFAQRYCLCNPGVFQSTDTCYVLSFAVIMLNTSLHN", "assay": "filter; competition vs 32P-C10.35; IC50 only in figure; 3 mM MgCl2 in PBS, 0.005% Triton X-100, 37 C", "conditions": "tags: His (detected with anti-penta-His); expressed in E. coli; label: 5'-32P for radiolabeled tracer; stem with a double bulge", "description": "(§2) To determine the affinity, ˜10 fmol of radiolabeled aptamer was incubated with protein dilution series for 30 min at 37° C. in 25 μL of buffer containing 1 mg/ml E. coli tRNA (Roche, Mannheim, Germany), 1 μg/ml BSA, 3 mM MgCl₂ in PBS, pH 7.4. For Sec7, 0.005% Triton X-100 was added and for c-Met-Fc, 1 mg/ml of BSA was used instead of 1 μg/ml. The aptamer-protein complexes were captured on a Protran™ nitrocellulose membrane (GE Healthcare) that was pre-incubated in 0.4 M KOH for 10 minutes, followed by washing with ddH₂O and PBS containing 3 mM MgCl₂, pH 7.4. After addition of the aptamer-protein solution, the filter was washed 4 times with PBS containing 3 mM MgCl₂, pH 7.4. Radioactivity was quantified using a Fujifilm Fla-3000 PhosphorImager and AIDA software package. The percentage of bound aptamer was calculated using equation 1:\n(§3) Filter retention assays in which the 5′-functionalized aptamer competed with the non-functionalized aptamer for binding to Sec-7 were performed as described above to test the influence of the 5′-functionalization on aptamer binding."}, "Cytohesin-2 Sec7 domain [5]": {"biological_target": "T2, Cytohesin-2 Sec7 domain", "assay": "filter; affinity not altered vs unfunctionalized C10.35; high UV cross-linking; also cross-links in H460 lysate (p104)", "conditions": "tags: His (detected with anti-penta-His); expressed in E. coli; label: biotin; stem with a double bulge", "description": "as §2, §3"}, "Cytohesin-2 Sec7 domain [6]": {"biological_target": "T2, Cytohesin-2 Sec7 domain", "assay": "365 nm photo-crosslinking, Western blot; marginal at highest concentration only; no band in H460 lysate (p104)", "conditions": "tags: His (detected with anti-penta-His); expressed in E. coli; label: biotin", "description": "Incubation of the target protein Sec7 with the 5′-functionalized aptamer C10.35 was performed by mixing 250 nM of the aptamer with different protein concentrations at 37° C. for 30 min as described in Examples 2 and 4. Crosslinking also was performed on ice by illuminating at 365 nm for 10 minutes.\nFurther, the amount of cross-linking of the 5′-functionalized aptamer C 10.35 to Sec-7 was investigated after incubating […] 167 nm, 56 nm and 19 nM Sec-7 with 250 nM of the 5′-functionalized aptamers C10.35 and C10.35 C15T, followed by UV irradiation at 365 nm using SDS-PAGE, followed by western blotting using neutravidin-dylight™ 800 (Thermo Scientific) to visualize biotinylated proteins. Anti-penta-his (1:2000, Qiagen) was used to visualize the total amount of Sec7 and goat-anti-mouse-IgG-dylight™ 800 (Thermo Scientific) was used as a secondary antibody. The blots were scanned at 800 nm using an Odyssey scanner (Li-cor Biotechnology, Bad Homburg, Germany)."}}, "data": [{"binder": "TGGATGGTAGCTCGGTCGGGGTGGGTGGGTTGGCAAGTCT (ssDNA, 5'-hexylamine coupled Sulfo-SBED (phenyl azide, biotin))", "note": "[ABAL-trCLN3]", "values": [{"measurement": "IC50", "setting": "[1]", "value": 0.05, "unit": "µM"}]}, {"binder": "TGGATGGTAGCTCGGTCGGGGTGGGTGGGTTGGCAAGTCT (ssDNA)", "note": "[trCLN3]", "values": [{"measurement": "IC50", "setting": "[2]", "value": 0.076, "unit": "µM"}]}, {"binder": "TGGATGGTAGCTCGGTCGGGGTGGATGGGTTGGCAAGTCT (ssDNA, 5'-hexylamine coupled Sulfo-SBED (phenyl azide, biotin))", "note": "[ABAL-trCLN3 G25A]", "values": [{"measurement": "binding result", "setting": "[3]", "value": "no binding"}]}, {"binder": "ACTCGGGAGGACTGCTTAGGATTGCGAACCCGGGT (ssDNA)", "note": "[C10.35]", "values": [{"measurement": "binding result", "setting": "Cytohesin-2 Sec7 domain [4]", "value": "binds"}]}, {"binder": "ACTCGGGAGGACTGCTTAGGATTGCGAACCCGGGT (ssDNA, 5'-hexylamine coupled Sulfo-SBED (phenyl azide, biotin))", "note": "[ABAL-C10.35]", "values": [{"measurement": "binding result", "setting": "Cytohesin-2 Sec7 domain [5]", "value": "binds"}]}, {"binder": "ACTCGGGAGGACTGTTTAGGATTGCGAACCCGGGT (ssDNA, 5'-hexylamine coupled Sulfo-SBED (phenyl azide, biotin))", "note": "[ABAL-C10.35 C15T]", "values": [{"measurement": "binding signal", "setting": "Cytohesin-2 Sec7 domain [6]", "value": "7 fold lower cross-linking than ABAL-C10.35"}]}]}
